US11078465B2, “Alcohol dehydrogenase mutant and application thereof in synthesis of diaryl chiral alcohols” (Jiangnan University, priority 2018, dated 2021)
Where a chain is given by its changes, count along the chain named. Numbers in names are those of the source. Where “and” joins values, the source holds several entries; their conditions need not be identical. Identical values can stand only once. Entries after “also recorded” stand apart in the source; their conditions may differ.

Legend:
Assay type in all cases: biochemical
[1] = Substrate specificity, specific activity
Method: (§1) Adopting a total reaction system of 200 μL, including: 1.0 mM NADPH, 1.0 mM substrate CPMK and sodium phosphate buffer (PBS, 100 mM, pH 7.0), fully and evenly mixing, maintaining at 30° C. for 2 min, adding an appropriate amount of enzyme solution, and detecting the change in light absorption at 340 nm.
(§2) The enzyme activity was calculated by the following formula: Enzyme activity (U)=EW×V×10^3/(6220×I);
(§3) in the formula, EW is the change in absorbance at 340 nm in 1 min; V is the volume of a reaction solution in mL; 6220 is the molar extinction coefficient of NADPH in L/mol·cm); and 1 is the optical path distance in cm. One activity unit (U) corresponds to the amount of enzyme required to catalyze the oxidation of 1 μmol NADPH per minute under the above conditions.
(§4) The reduction on prochiral carbonyl compounds by the alcohol dehydrogenase mutants obtained in Example 3 was studied. The pro-chiral carbonyl compounds include (4-chlorophenyl)-(pyridin-2-yl)-methanone (CPMK), phenyl-(pyridin-2-yl)-methanone, (4-chlorophenyl)-(phenyl)-methanone, (4-bromophenyl)(phenyl)methanone, (4-fluorophenyl)(phenyl)methanone, (4-methoxyphenyl)-(phenyl)-methanone, (4-nitrophenyl)(phenyl)methanone, 1-(pyridin-2-yl)ethanone, acetophenone, 4′-Chloroacetophenone, 4-chlorophenacyl chloride, ethyl 2-oxo-4-phenylbutanoate (OPBE), ethyl 4-chloro-3-oxobutanoate, and methyl 2-oxo-2-phenylacetate.

[2] = Stereoselectivity (ee) of CPMK reduction, chiral liquid chromatography; details: for e.e. / ee %: product configuration in brackets
Method: (§5) In an embodiment of the present disclosure, a chromatographic analysis method is as follows: 100 μL of reactant liquid is taken, 500 μL of ethyl acetate is added, shaking is performed for 1-2 min, centrifugation is performed at 12,000 rpm for 2-5 min, supernatant liquid is taken into a centrifuge tube, after an organic phase naturally volatilizes completely, 500 μL of chromatographically pure ethanol is added, and chiral liquid chromatography and gas chromatography are performed to analyze the transformation rate and the ee value.
(§6) Method for determining optical purity ee:
(§7) As: molar concentration of (S)-CPMA obtained by liquid chromatography; and AR: molar concentration of (R)-CPMA obtained by liquid chromatography.

[3] = Asymmetric reduction in 20 mL biocatalytic system, conversion
Method: as §5
The pure (R)-CPMA were recrystallized from ethyl acetate at 4° C. and gave 99.9% optical purity. […] Besides, the conversion cannot reach 100% with 24 h in the asymmetric reduction of (4-bromophenyl)-(phenyl)-methanone and p-nitrobenzophenone due to the low enzyme activity.

[4] = Stereoselectivity on different substrates; details: for Stereoselectivity (ee): configuration in brackets
Method: as §5, §6, §7, §4
All the products above were recrystallized from ethyl acetate and gave more than 99.9% optical purity.

[5] = Stereoselectivity on different substrates; details: configuration in brackets
Method: as §5, §6, §7, §4

[6] = Kinetic analysis of alcohol dehydrogenase and mutants (NADPH oxidation, 340 nm, double reciprocal curve); details: substrate CPMK
Method: as §1, §2, §3
A column used for purification was a nickel affinity column HisTrap FF crude, and purification was achieved through affinity chromatography using a histidine tag on recombinant protein. The nickel column was equilibrated with a solution A first, a crude enzyme solution was loaded, a penetrating peak was further eluted off using the solution A, and after equilibrium, a solution B (20 mM sodium phosphate, 500 mM NaCl, and 1000 mM imidazole, pH 7.4) was used for gradient elution to elute off the recombinant protein bound to the nickel column, so as to obtain the recombinant alcohol dehydrogenase mutant. The purified protein was subjected to activity measurement (CPMK as substrate, and NADPH as coenzyme) and SDS-PAGE analysis. […] The purified alcohol dehydrogenase protein was then replaced into a Tris-HCl (100 mM, pH 7.0) buffer using a Hi Trap Desalting column (GE Healthcare).
The activity of KpADH at different substrate concentrations and coenzyme concentrations was determined, and a double reciprocal curve was made based on the reciprocal of activity and substrate concentration to calculate kinetic parameters.

B1: E214G/S237C: glycine for glutamate at position 214 and cysteine for serine at position 237 of SEQ ID No. 2 (protein)
chain: MSVLISGASGYIAKHIVRVLLEQNYKVIGTVRSQDKADKLLKQYNNPNLSYEIVPEIANLDAFDDIFKKHGKEIKYVIHAASPVNFGAKDLEKDLVIPAINGTKNMFEAIKKYAPDTVERVVMTASYASIMTPHRQNDPTLTLDEETWNPVTEENAYENVFTAYCASKTFAEKEAWKFVKENSDAVKFKLTTIHPSFVFGPQNFDEDVTKKLNGTCEIINGLLHAPFDTKVEKTHFCQFIDVRDVAKTHVLGFQKDELINQRLLLCNGAFSQQDIVNVFNEDFPELKGQFPPEDKDTDLNKGVTGCKIDNEKTKKLLAFEFTPFHKTIHDTVYQILHKEGRV
modifications: Protein translated from synthetic DNA
For B1, the specific activity ([1]; substrate [drawing 1]) was 0.15 U/mg, the specific activity ([1]; substrate [drawing 2]) was 0.07 U/mg and the specific activity ([1]; substrate [drawing 3]) was 0.12 U/mg. For the same molecule, the specific activity ([1]; substrate [drawing 4]) was 3.10 U/mg, the specific activity ([1]; substrate [drawing 5]) was 4.84 U/mg and the specific activity ([1]; substrate [drawing 6], 4-chlorophenacyl chloride) was 9.81 U/mg. For the same molecule, the specific activity ([1]; substrate [drawing 7]) was 10.26 U/mg, the specific activity ([1]; substrate [drawing 8]) was 21.25 U/mg and the specific activity ([1]; substrate [drawing 9], ethyl 4-chloro-3-oxobutanoate) was 1.55 U/mg. For the same molecule, the “configuration of product / stereoselectivity in words” value [2] was “inversion from the R configuration to the S configuration; also recorded: (S)-CPMA”, the “ee value, (S)-CPMA” value ([2]; S configuration product) was 75.5% and the e.e. [2] was 75.5 (S). For the same molecule, the Conversion rate ([3]; acetophenone 100 mM, 1 h) was 42%, the Conversion rate ([3]; acetophenone 100 mM, 2 h) was 53% and the Conversion rate ([3]; acetophenone 100 mM, 3 h) was 65%. For the same molecule, the Conversion rate ([3]; acetophenone 100 mM, 4 h) was 77%, the Conversion rate ([3]; acetophenone 100 mM, 6 h) was 95% and the Conversion rate ([3]; acetophenone 100 mM, 8 h) was 99.0%. It also gave a Conversion rate ([3]; acetophenone 100 mM, 12 h) greater than 99.9%, a Conversion rate ([3]; acetophenone 100 mM, 24 h) greater than 99.9% and a Conversion rate ([3]; acetophenone 200 mM, 1 h) of 35%. For the same molecule, the Conversion rate ([3]; acetophenone 200 mM, 2 h) was 49%, the Conversion rate ([3]; acetophenone 200 mM, 3 h) was 60% and the Conversion rate ([3]; acetophenone 200 mM, 4 h) was 72%. It also gave a Conversion rate ([3]; acetophenone 200 mM, 6 h) of 85.9%, a Conversion rate ([3]; acetophenone 200 mM, 8 h) of 93.6% and a Conversion rate ([3]; acetophenone 200 mM, 12 h) of 99.2%. For the same molecule, the Conversion rate ([3]; acetophenone 200 mM, 24 h) was 99.7%, the Conversion rate ([3]; acetophenone 500 mM, 1 h) was 20.9% and the Conversion rate ([3]; acetophenone 500 mM, 2 h) was 34.5%. The Conversion rate ([3]; acetophenone 500 mM, 3 h) was 49.6%, the Conversion rate ([3]; acetophenone 500 mM, 4 h) was 62.6% and the Conversion rate ([3]; acetophenone 500 mM, 6 h) was 77.9%. It also gave a Conversion rate ([3]; acetophenone 500 mM, 8 h) of 88.6%, a Conversion rate ([3]; acetophenone 500 mM, 12 h) of 92.9% and a Conversion rate ([3]; acetophenone 500 mM, 24 h) of 99.2%. The “Stereoselectivity (ee)” value ([4]; substrate [drawing 10], acetophenone) was 99.5 (R), the “Stereoselectivity (ee)” value ([4]; substrate [drawing 11], 4-chloroacetophenone) was 93.8 (R) and the “Stereoselectivity (ee)” value ([4]; substrate [drawing 12], 4-chlorobenzoyl chloride) was 96.2 (R). The “Stereoselectivity (ee)” value ([4]; substrate [drawing 16], (4-bromophenyl)-(phenyl)-methanone) was 91.4 (R), the “Stereoselectivity (ee)” value ([4]; substrate [drawing 17], p-nitrobenzophenone) was 93.3 (R) and the ee value ([4]; substrate acetophenone, R configuration products) was 99.5%. The “Stereoselectivity (ee)” value ([5]; substrate [drawing 13]) was 51.9 (R), the “Stereoselectivity (ee)” value ([5]; substrate [drawing 14], likely CPMK (values partly match Table 4)) was 43.2 (S) and the “Stereoselectivity (ee)” value ([5]; substrate [drawing 15]) was 86.2 (R). For the same molecule, the “Stereoselectivity (ee)” value ([5]; substrate [drawing 18]) was 93.8 (S).

B2: E214G: glycine for glutamate at position 214 of the alcohol dehydrogenase of SEQ ID No. 2 (protein)
chain: B1 chain with C237S
modifications: Protein translated from synthetic DNA
With B2 the “configuration of product / stereoselectivity in words” value [2] was “inversion from an R configuration to an S configuration”, the e.e. [2] was 25.6 (S) and the ee % [2] was 25.6 (S) %. The Kcat [6] was 5.5 ± 0.10 s⁻¹, the Km [6] was 250 µM and the Vmax [6] was 8.26 ± 0.15 µM/min/mg.

B3: E214R: arginine for glutamate at position 214 of the alcohol dehydrogenase of SEQ ID No. 2 (protein)
chain: B1 chain with G214R, C237S
modifications: Protein translated from synthetic DNA
For B3, the ee % [2] was 42.5 (R) %, the Kcat [6] was 15.85 ± 0.49 s⁻¹ and the Km [6] was 980 ± 80 µM. For the same molecule, the Vmax [6] was 23.77 ± 0.90 µM/min/mg.

B4: E214N: asparagine for glutamate at position 214 of the alcohol dehydrogenase of SEQ ID No. 2 (protein)
chain: B1 chain with G214N, C237S
modifications: Protein translated from synthetic DNA
With B4 the ee % [2] was 58.1 (R) %, the Kcat [6] was 22.90 ± 1.12 s⁻¹ and the Km [6] was 420 ± 60 µM. For the same molecule, the Vmax [6] was 34.35 ± 2.05 µM/min/mg.

B5: E214I: isoleucine for glutamate at position 214 of the alcohol dehydrogenase of SEQ ID No. 2 (protein)
chain: B1 chain with G214I, C237S
modifications: Protein translated from synthetic DNA
For B5, the ee % [2] was 93.0 (R) %, the Kcat [6] was 8.77 ± 0.23 s⁻¹ and the Km [6] was 410 ± 40 µM. The Vmax [6] was 13.15 ± 0.43 µM/min/mg.

B6: E214Q: glutamine for glutamate at position 214 of the alcohol dehydrogenase of SEQ ID No. 2 (protein)
chain: B1 chain with G214Q, C237S
modifications: Protein translated from synthetic DNA
With B6 the ee % [2] was 58.5 (R) %, the Kcat [6] was 16.26 ± 1.33 s⁻¹ and the Km [6] was 1300 ± 200 µM. For the same molecule, the Vmax [6] was 24.4 ± 0.20 µM/min/mg.

B7: E214S: serine for glutamate at position 214 of the alcohol dehydrogenase of SEQ ID No. 2 (protein)
chain: B1 chain with G214S, C237S
modifications: Protein translated from synthetic DNA
With B7 the ee % [2] was 14.2 (R) %, the Kcat [6] was 11.86 ± 0.48 s⁻¹ and the Km [6] was 540 ± 70 µM. It also gave a Vmax [6] of 17.79 ± 0.88 µM/min/mg.

B8: S237A: alcohol dehydrogenase mutant obtained by random mutation screening (protein)
chain: B1 chain with G214I, C237A
modifications: Protein translated from synthetic DNA
notes: alcohol dehydrogenase mutant obtained by random mutation screening
In the case of B8, the e.e. [2] is reported as 96.1 (R).

B9: E214V: valine for glutamate at position 214 of the alcohol dehydrogenase of SEQ ID No. 2 (protein)
chain: B1 chain with G214V, C237S
modifications: Protein translated from synthetic DNA
With B9 the “ee value, (R)-CPMA” value ([2]; R configuration product) was 91% and 95.3%, the ee % [2] was 95.3 (R) % and the Kcat [6] was 8.91 ± 0.48 s⁻¹. It also gave a Km [6] of 420 µM and a Vmax [6] of 13.36 ± 0.89 µM/min/mg.

B10: S237C: alcohol dehydrogenase mutant obtained by random mutation screening (protein)
chain: B1 chain
modifications: Protein translated from synthetic DNA
notes: as for B8
In the case of B10, the e.e. [2] is reported as 27 (R).
